Results: patent US20260274985A1 (MYTHIC THERAPEUTICS, published 2026)

T1: Human TROP2 Protein, His Tag (Acro Biosystems) (human, UniProt P09758 27-274)
T1 construct: Soluble analyte of the Octet assay; also called TACSTD2; not shown: His tag
T1 sequence (looked up): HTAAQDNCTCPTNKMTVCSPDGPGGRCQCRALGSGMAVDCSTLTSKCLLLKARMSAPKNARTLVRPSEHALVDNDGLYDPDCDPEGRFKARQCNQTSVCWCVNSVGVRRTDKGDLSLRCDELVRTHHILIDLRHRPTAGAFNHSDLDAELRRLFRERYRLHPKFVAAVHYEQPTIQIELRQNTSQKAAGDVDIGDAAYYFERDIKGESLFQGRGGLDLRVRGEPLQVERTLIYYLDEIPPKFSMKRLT

T2: Human TROP2 Protein, His Tag (Acro Biosystems) (human, UniProt P09758 27-274)
T2 construct: not shown: His tag
T2 sequence (looked up): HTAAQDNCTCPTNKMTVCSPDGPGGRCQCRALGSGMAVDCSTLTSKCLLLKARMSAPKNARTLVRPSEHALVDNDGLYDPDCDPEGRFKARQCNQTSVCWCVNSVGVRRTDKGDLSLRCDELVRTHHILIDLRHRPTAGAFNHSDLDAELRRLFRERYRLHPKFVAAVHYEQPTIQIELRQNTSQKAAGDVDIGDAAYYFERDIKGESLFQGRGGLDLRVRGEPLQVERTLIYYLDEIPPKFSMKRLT


target: T1, Human TROP2 Protein, His Tag (Acro …); test: BLI (Octet) [1/2]

Binder	binding result
MYT13204 (antibody, V domains shown, Sacituzumab HC-LC pairing variant; IgG) VH: QVQLQQSGSELKKPGASVKVSCKASGYTFTNYGMNWVKQAPGQGLKWMGWINTYTGEPTYTDHFKGRFAFSLDTSVSTAYLQISSLKADDTAVYFCARGGFGSSYWYFDVWGQGSLVTVSS VL: DIQLTQSPSSLSASVGDRVSITCKASQDVSIAVAWYQQKPGKAPKLLIYSASYRYTGVPDRFSGSGSGTDFTLTISSLQPEDFAVYYCHQHYITPLTFGAGTKVEIK	binds

target: T2, Human TROP2 Protein, His Tag (Acro …); test: BLI (Octet) [1/2]

Binder	binding result
MYT12311 (antibody, V domains shown, sacituzumab VH 60, 66 -> H) VH: QVQLQQSGSELKKPGASVKVSCKASGYTFTNYGMNWVKQAPGQGLKWMGWINTYTGEPTHTDDFKHRFAFSLDTSVSTAYLQISSLKADDTAVYFCARGGFGSSYWYFDVWGQGSLVTVSS VL: DIQLTQSPSSLSASVGDRVSITCKASQDVSIAVAWYQQKPGKAPKLLIYSASYRYTGVPDRFSGSGSGTDFTLTISSLQPEDFAVYYCQQHYITPLTFGAGTKVEIK	binds
MYT12312 (antibody, V domains shown, sacituzumab VH 62, 63 -> H) VH: QVQLQQSGSELKKPGASVKVSCKASGYTFTNYGMNWVKQAPGQGLKWMGWINTYTGEPTYTHHFKGRFAFSLDTSVSTAYLQISSLKADDTAVYFCARGGFGSSYWYFDVWGQGSLVTVSS VL: DIQLTQSPSSLSASVGDRVSITCKASQDVSIAVAWYQQKPGKAPKLLIYSASYRYTGVPDRFSGSGSGTDFTLTISSLQPEDFAVYYCQQHYITPLTFGAGTKVEIK	binds
MYT12313 (antibody, V domains shown, sacituzumab VH 62, 64 -> H) VH: QVQLQQSGSELKKPGASVKVSCKASGYTFTNYGMNWVKQAPGQGLKWMGWINTYTGEPTYTHDHKGRFAFSLDTSVSTAYLQISSLKADDTAVYFCARGGFGSSYWYFDVWGQGSLVTVSS VL: DIQLTQSPSSLSASVGDRVSITCKASQDVSIAVAWYQQKPGKAPKLLIYSASYRYTGVPDRFSGSGSGTDFTLTISSLQPEDFAVYYCQQHYITPLTFGAGTKVEIK	binds
MYT12314 (antibody, V domains shown, sacituzumab VH 62, 65 -> H) VH: QVQLQQSGSELKKPGASVKVSCKASGYTFTNYGMNWVKQAPGQGLKWMGWINTYTGEPTYTHDFHGRFAFSLDTSVSTAYLQISSLKADDTAVYFCARGGFGSSYWYFDVWGQGSLVTVSS VL: DIQLTQSPSSLSASVGDRVSITCKASQDVSIAVAWYQQKPGKAPKLLIYSASYRYTGVPDRFSGSGSGTDFTLTISSLQPEDFAVYYCQQHYITPLTFGAGTKVEIK	binds
MYT12315 (antibody, V domains shown, sacituzumab VH 62, 66 -> H) VH: QVQLQQSGSELKKPGASVKVSCKASGYTFTNYGMNWVKQAPGQGLKWMGWINTYTGEPTYTHDFKHRFAFSLDTSVSTAYLQISSLKADDTAVYFCARGGFGSSYWYFDVWGQGSLVTVSS VL: DIQLTQSPSSLSASVGDRVSITCKASQDVSIAVAWYQQKPGKAPKLLIYSASYRYTGVPDRFSGSGSGTDFTLTISSLQPEDFAVYYCQQHYITPLTFGAGTKVEIK	binds
MYT12316 (antibody, V domains shown, sacituzumab VH 63, 64 -> H) VH: QVQLQQSGSELKKPGASVKVSCKASGYTFTNYGMNWVKQAPGQGLKWMGWINTYTGEPTYTDHHKGRFAFSLDTSVSTAYLQISSLKADDTAVYFCARGGFGSSYWYFDVWGQGSLVTVSS VL: DIQLTQSPSSLSASVGDRVSITCKASQDVSIAVAWYQQKPGKAPKLLIYSASYRYTGVPDRFSGSGSGTDFTLTISSLQPEDFAVYYCQQHYITPLTFGAGTKVEIK	binds
MYT12324 (antibody, V domains shown, sacituzumab VH 33, 60, 66 -> H) VH: QVQLQQSGSELKKPGASVKVSCKASGYTFTNYHMNWVKQAPGQGLKWMGWINTYTGEPTHTDDFKHRFAFSLDTSVSTAYLQISSLKADDTAVYFCARGGFGSSYWYFDVWGQGSLVTVSS VL: DIQLTQSPSSLSASVGDRVSITCKASQDVSIAVAWYQQKPGKAPKLLIYSASYRYTGVPDRFSGSGSGTDFTLTISSLQPEDFAVYYCQQHYITPLTFGAGTKVEIK	binds
MYT12325 (antibody, V domains shown, sacituzumab VH 33, 64, 65 -> H) VH: QVQLQQSGSELKKPGASVKVSCKASGYTFTNYHMNWVKQAPGQGLKWMGWINTYTGEPTYTDDHHGRFAFSLDTSVSTAYLQISSLKADDTAVYFCARGGFGSSYWYFDVWGQGSLVTVSS VL: DIQLTQSPSSLSASVGDRVSITCKASQDVSIAVAWYQQKPGKAPKLLIYSASYRYTGVPDRFSGSGSGTDFTLTISSLQPEDFAVYYCQQHYITPLTFGAGTKVEIK	binds
MYT12326 (antibody, V domains shown, sacituzumab VH 33, 64, 66 -> H) VH: QVQLQQSGSELKKPGASVKVSCKASGYTFTNYHMNWVKQAPGQGLKWMGWINTYTGEPTYTDDHKHRFAFSLDTSVSTAYLQISSLKADDTAVYFCARGGFGSSYWYFDVWGQGSLVTVSS VL: DIQLTQSPSSLSASVGDRVSITCKASQDVSIAVAWYQQKPGKAPKLLIYSASYRYTGVPDRFSGSGSGTDFTLTISSLQPEDFAVYYCQQHYITPLTFGAGTKVEIK	binds
MYT12328 (antibody, V domains shown, sacituzumab VH 60, 64, 65 -> H) VH: QVQLQQSGSELKKPGASVKVSCKASGYTFTNYGMNWVKQAPGQGLKWMGWINTYTGEPTHTDDHHGRFAFSLDTSVSTAYLQISSLKADDTAVYFCARGGFGSSYWYFDVWGQGSLVTVSS VL: DIQLTQSPSSLSASVGDRVSITCKASQDVSIAVAWYQQKPGKAPKLLIYSASYRYTGVPDRFSGSGSGTDFTLTISSLQPEDFAVYYCQQHYITPLTFGAGTKVEIK	binds
MYT12329 (antibody, V domains shown, sacituzumab VH 60, 64, 66 -> H) VH: QVQLQQSGSELKKPGASVKVSCKASGYTFTNYGMNWVKQAPGQGLKWMGWINTYTGEPTHTDDHKHRFAFSLDTSVSTAYLQISSLKADDTAVYFCARGGFGSSYWYFDVWGQGSLVTVSS VL: DIQLTQSPSSLSASVGDRVSITCKASQDVSIAVAWYQQKPGKAPKLLIYSASYRYTGVPDRFSGSGSGTDFTLTISSLQPEDFAVYYCQQHYITPLTFGAGTKVEIK	binds
MYT12332 (antibody, V domains shown, sacituzumab VL 30, 33 -> H) VH: QVQLQQSGSELKKPGASVKVSCKASGYTFTNYGMNWVKQAPGQGLKWMGWINTYTGEPTYTDDFKGRFAFSLDTSVSTAYLQISSLKADDTAVYFCARGGFGSSYWYFDVWGQGSLVTVSS VL: DIQLTQSPSSLSASVGDRVSITCKASQDVHIAHAWYQQKPGKAPKLLIYSASYRYTGVPDRFSGSGSGTDFTLTISSLQPEDFAVYYCQQHYITPLTFGAGTKVEIK	binds
MYT12333 (antibody, V domains shown, sacituzumab VL 30, 51 -> H) VH: QVQLQQSGSELKKPGASVKVSCKASGYTFTNYGMNWVKQAPGQGLKWMGWINTYTGEPTYTDDFKGRFAFSLDTSVSTAYLQISSLKADDTAVYFCARGGFGSSYWYFDVWGQGSLVTVSS VL: DIQLTQSPSSLSASVGDRVSITCKASQDVHIAVAWYQQKPGKAPKLLIYSHSYRYTGVPDRFSGSGSGTDFTLTISSLQPEDFAVYYCQQHYITPLTFGAGTKVEIK	binds
MYT12334 (antibody, V domains shown, sacituzumab VL 30, 52 -> H) VH: QVQLQQSGSELKKPGASVKVSCKASGYTFTNYGMNWVKQAPGQGLKWMGWINTYTGEPTYTDDFKGRFAFSLDTSVSTAYLQISSLKADDTAVYFCARGGFGSSYWYFDVWGQGSLVTVSS VL: DIQLTQSPSSLSASVGDRVSITCKASQDVHIAVAWYQQKPGKAPKLLIYSAHYRYTGVPDRFSGSGSGTDFTLTISSLQPEDFAVYYCQQHYITPLTFGAGTKVEIK	binds
MYT12335 (antibody, V domains shown, sacituzumab VL 30, 53 -> H) VH: QVQLQQSGSELKKPGASVKVSCKASGYTFTNYGMNWVKQAPGQGLKWMGWINTYTGEPTYTDDFKGRFAFSLDTSVSTAYLQISSLKADDTAVYFCARGGFGSSYWYFDVWGQGSLVTVSS VL: DIQLTQSPSSLSASVGDRVSITCKASQDVHIAVAWYQQKPGKAPKLLIYSASHRYTGVPDRFSGSGSGTDFTLTISSLQPEDFAVYYCQQHYITPLTFGAGTKVEIK	binds
MYT12336 (antibody, V domains shown, sacituzumab VL 30, 89 -> H) VH: QVQLQQSGSELKKPGASVKVSCKASGYTFTNYGMNWVKQAPGQGLKWMGWINTYTGEPTYTDDFKGRFAFSLDTSVSTAYLQISSLKADDTAVYFCARGGFGSSYWYFDVWGQGSLVTVSS VL: DIQLTQSPSSLSASVGDRVSITCKASQDVHIAVAWYQQKPGKAPKLLIYSASYRYTGVPDRFSGSGSGTDFTLTISSLQPEDFAVYYCHQHYITPLTFGAGTKVEIK	binds
MYT12339 (antibody, V domains shown, sacituzumab VL 30, 93 -> H) VH: QVQLQQSGSELKKPGASVKVSCKASGYTFTNYGMNWVKQAPGQGLKWMGWINTYTGEPTYTDDFKGRFAFSLDTSVSTAYLQISSLKADDTAVYFCARGGFGSSYWYFDVWGQGSLVTVSS VL: DIQLTQSPSSLSASVGDRVSITCKASQDVHIAVAWYQQKPGKAPKLLIYSASYRYTGVPDRFSGSGSGTDFTLTISSLQPEDFAVYYCQQHYHTPLTFGAGTKVEIK	binds
MYT12340 (antibody, V domains shown, sacituzumab VL 33, 51 -> H) VH: QVQLQQSGSELKKPGASVKVSCKASGYTFTNYGMNWVKQAPGQGLKWMGWINTYTGEPTYTDDFKGRFAFSLDTSVSTAYLQISSLKADDTAVYFCARGGFGSSYWYFDVWGQGSLVTVSS VL: DIQLTQSPSSLSASVGDRVSITCKASQDVSIAHAWYQQKPGKAPKLLIYSHSYRYTGVPDRFSGSGSGTDFTLTISSLQPEDFAVYYCQQHYITPLTFGAGTKVEIK	binds
MYT12341 (antibody, V domains shown, sacituzumab VL 33, 52 -> H) VH: QVQLQQSGSELKKPGASVKVSCKASGYTFTNYGMNWVKQAPGQGLKWMGWINTYTGEPTYTDDFKGRFAFSLDTSVSTAYLQISSLKADDTAVYFCARGGFGSSYWYFDVWGQGSLVTVSS VL: DIQLTQSPSSLSASVGDRVSITCKASQDVSIAHAWYQQKPGKAPKLLIYSAHYRYTGVPDRFSGSGSGTDFTLTISSLQPEDFAVYYCQQHYITPLTFGAGTKVEIK	binds
